In publication PMC8080530, “Glucocorticoid receptor Thr524 phosphorylation by MINK1 induces interactions with 14-3-3 protein regulators” (The Journal of Biological Chemistry, 2021):
Read-outs that look alike come from different tables or passages of the source. Non-standard residues stand in square brackets, D forms with d. Residues, ends and D or L forms follow the SMILES beside them. Primed or numbered codes have the meaning given here. No end group written: not given here. *: point of attachment. FITC′ = fluorescein isothiocyanate tag added on resin (method C); FITC = O=C1OC2(c3ccc(O)cc3Oc3cc(O)ccc32)c2ccc(NC(=S)*)cc21; pT = C[C@@H](OP(=O)(O)O)[C@H](N)C(=O)O; pS = N[C@@H](COP(=O)(O)O)C(=O)O

T1: 14-3-3ζ (Homo sapiens, UniProt P63104)
T1 construct: Full-length expression and purification of 14-3-3; made in house; host or cells: E. coli BL21 (DE3)STAR
T1 sequence (P63104 1-245): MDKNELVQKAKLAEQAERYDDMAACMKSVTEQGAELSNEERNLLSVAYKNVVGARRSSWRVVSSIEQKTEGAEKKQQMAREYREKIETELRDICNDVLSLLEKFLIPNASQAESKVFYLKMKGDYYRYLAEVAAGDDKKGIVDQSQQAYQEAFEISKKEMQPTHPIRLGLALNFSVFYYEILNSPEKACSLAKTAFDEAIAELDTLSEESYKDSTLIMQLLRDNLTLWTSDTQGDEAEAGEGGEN

T2: 14-3-3σ (Homo sapiens, UniProt P31947)
T2 construct: Full-length expression and purification of 14-3-3; made in house; host or cells: E. coli BL21 (DE3)STAR
T2 sequence (P31947 1-248): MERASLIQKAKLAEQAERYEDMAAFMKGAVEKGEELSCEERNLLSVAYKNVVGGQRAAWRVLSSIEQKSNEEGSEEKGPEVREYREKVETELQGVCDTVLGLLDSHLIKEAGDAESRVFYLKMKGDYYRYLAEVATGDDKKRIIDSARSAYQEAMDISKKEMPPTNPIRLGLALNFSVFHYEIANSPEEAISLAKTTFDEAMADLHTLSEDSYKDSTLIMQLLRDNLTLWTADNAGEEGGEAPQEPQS

T3: human 14-3-3ζ, full length, 6His-Linker-h14-3-3 (human, UniProt P63104 1-245)
T3 chain: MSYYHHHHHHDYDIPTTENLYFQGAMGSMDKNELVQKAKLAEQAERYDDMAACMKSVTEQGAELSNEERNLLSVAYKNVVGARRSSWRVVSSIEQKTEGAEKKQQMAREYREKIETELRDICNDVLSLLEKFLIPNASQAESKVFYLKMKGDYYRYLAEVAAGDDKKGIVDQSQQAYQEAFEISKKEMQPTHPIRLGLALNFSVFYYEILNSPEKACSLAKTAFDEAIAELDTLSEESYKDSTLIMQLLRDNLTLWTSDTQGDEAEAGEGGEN

T4: human 14-3-3σ, full length, 6His-Linker-h14-3-3 (human, UniProt P31947 1-248)
T4 construct: 14-3-3 protein sigma, human, cloned in pProEx Htb; also called σ isoform of human 14-3-3; source: E. coli BL21 (DE3)STAR, purified (Ni-NTA, SEC); not shown: His6 with linker [residues removed], N-terminal, kept
T4 sequence (looked up): T2 sequence (P31947 1-248)

B1: GR pT561, FITC-labelled 13-mer phosphopeptide (peptide, UniProt P04150 555-567, looked up)
peptide: {FITC}-STWRIM[pT]TLNMLG
notes: glucocorticoid receptor (GR), human; 13-mer centred on T561; source: synthetic peptide
B2: GR_pS134, FITC-labelled 13-mer phosphopeptide (peptide, UniProt P04150 128-140, looked up)
peptide: {FITC′}-NLNRST[pS]VPENPK
modifications: also: phosphoserine at 134 (S5 or S7)
notes: glucocorticoid receptor (GR), human; 13-mer centred on S134; also called 13-mer peptide centered on GR S134; source: synthetic peptide
B3: GR pT635, FITC-labelled 13-mer phosphopeptide (peptide, UniProt P04150 629-641, looked up)
peptide: {FITC}-INEQRM[pT]LPCMYD
notes: glucocorticoid receptor (GR), human; 13-mer centred on T635; source: synthetic peptide
B4: GR_pT524, FITC-labelled 13-mer phosphopeptide (peptide, UniProt P04150 518-530, looked up)
peptide: {FITC′}-KTIVPA[pT]LPQLTP
modifications: also: phosphothreonine at 524 (T2, T7 or T12)
notes: glucocorticoid receptor (GR), human; 13-mer centred on T524; source: synthetic peptide
B5: GR pS83, FITC-labelled 13-mer phosphopeptide (peptide, UniProt P04150 77-89, looked up)
peptide: {FITC}-DLSKAV[pS]LSMGLY
notes: glucocorticoid receptor (GR), human; 13-mer centred on S83; source: synthetic peptide
B6: GR_pS617, FITC-labelled 13-mer phosphopeptide (peptide, UniProt P04150 611-623, looked up)
peptide: {FITC′}-RSYRQS[pS]ANLLCF
modifications: also: phosphoserine at 617 (S6 or S7)
notes: glucocorticoid receptor (GR), human; 13-mer centred on S617; source: synthetic peptide

Legend:
14-3-3ζ = target: T1, 14-3-3ζ; test: FP assay with GR phosphorylated peptides and 14-3-3ζ; type: binding
Method in brief: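 Fluorescence polarization (ex 485/em 520 nm) was read in triplicate after 30-min RT incubation. Binding data were fitted to a standard Hill equation and expressed in mP units. The dynamic range (ΔmP) is the difference between bound and free peptide signals.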

14-3-3σ = target: T2, 14-3-3σ; test: FP assay with GR phosphorylated peptides and 14-3-3σ; type: binding; details: FITC-labeled peptide titrated with 14-3-3σ, 30 min RT, triplicates
Method: After 30-min incubation at RT, the plates were read on a plate reader PHERAstar (BMG LABTECH GmbH) for FP signal using […] and standard excitation (485 nm) and emission (520 nm). Measurements were performed as triplicates. Binding data were fit to a standard Hill equation using the software Genedata Screener. The figures were made using the software GraphPad Prism 8. FP data were expressed as millipolarization (mP) units, and the dynamic range (ΔmP) was the difference of the signals from the bound peptide and free peptide. Errors are the standard error of the fit.

[1] = target: T3, human 14-3-3ζ, full length, …; test: FP
[2] = target: T3, human 14-3-3ζ, full length, …; test: SPR
[3] = target: T4, human 14-3-3σ, full length, …; test: fluorescence polarisation; FITC-labelled peptide at 60 nM (monophosphorylated) or 10 nM (doubly phosphorylated) titrated with 14-3-3ζ or 14-3-3σ in dilution series from 300 μM or 150 μM; 30 min at RT; 384-well plate; Hill fit; triplicates; details: both partners purified

Molecule | Kd [1] [µM] | binding result [3] | other results
CC[C@H](C)[C@H](NC(=O)[C@H](CCCCN)NC(=O)[C@H](CCCCN)NC(=O)[C@H](CCCCN)NC(=O)[C@@H](NC(=O)[C@H](CCCCN)NC(=O)[C@H](CCCNC(=N)N)NC(=O)[C@H](C)NC(=O)[C@H](CCC(=O)O)NC(=O)[C@H](CC(C)C)NC(=O)[C@@H](N)CC(N)=O)[C@@H](C)OP(=O)(O)O)C(=O)N[C@@H](CCCCN)C(=O)NCC(=O)O [GR_pT493] (H-NLEARK[pT]KKKIKG-OH; N-terminus assumed) | – | – | Kd (14-3-3ζ; FITC-labeled peptide 60 nM (monophosphorylated) or 10 nM (doubly phosphorylated) titrated with 14-3-3ζ, 30 min RT, Hill fit, triplicates, read-out: Kd with 14-3-3ζ by FP): > 150000 nM; Kd (14-3-3σ): > 150 µM
CC[C@H](C)[C@H](NC(=O)[C@@H](NC(=O)[C@H](CCCCN)NC(C)=O)[C@@H](C)O)C(=O)N[C@H](C(=O)N1CCC[C@H]1C(=O)N[C@@H](C)C(=O)N[C@H](C(=O)N[C@@H](CC(C)C)C(=O)N1CCC[C@H]1C(=O)N[C@@H](CCC(N)=O)C(=O)N[C@@H](CC(C)C)C(=O)N[C@H](C(=O)N1CCC[C@H]1C(=O)NCC(=O)NCC(=O)NCC(=O)NCC(=O)NCC(=O)N[C@@H](CCCNC(=N)N)C(=O)N[C@@H](CO)C(=O)N[C@@H](Cc1ccc(O)cc1)C(=O)N[C@@H](CCCNC(=N)N)C(=O)N[C@@H](CCC(N)=O)C(=O)N[C@@H](CO)C(=O)N[C@@H](COP(=O)(O)O)C(=O)N[C@@H](C)C(=O)N[C@@H](CC(N)=O)C(=O)N[C@@H](CC(C)C)C(=O)N[C@@H](CC(C)C)C(=O)N[C@@H](CS)C(=O)N[C@@H](Cc1ccccc1)C(=O)O)[C@@H](C)O)[C@@H](C)OP(=O)(O)O)C(C)C [GR_pT524-pS617] (Ac-KTIVPA[pT]LPQLTPGGGGGRSYRQS[pS]ANLLCF-OH) | – | – | Kd (14-3-3ζ; FP, doubly phosphorylated 31-mer peptides, triplicates, read-out: Kd with 14-3-3ζ (values in nM)): 18 nM; fold improvement of binding affinity with 14-3-3ζ compared with the individual monomers (14-3-3ζ; avidity effect of dimeric peptide): 1000 fold; Kd (14-3-3σ): 0.053 ± 0.026 µM
CC[C@H](C)[C@H](NC(=O)[C@H](CCCNC(=N)N)NC(=O)[C@H](Cc1c[nH]c2ccccc12)NC(=O)[C@@H](N)[C@@H](C)O)C(=O)N[C@@H](CCSC)C(=O)N[C@H](C(=O)N[C@H](C(=O)N[C@@H](CC(C)C)C(=O)N[C@@H](CC(N)=O)C(=O)N[C@@H](CCSC)C(=O)N[C@@H](CC(C)C)C(=O)NCC(=O)NCC(=O)O)[C@@H](C)OP(=O)(O)O)[C@@H](C)O [GR_pT562] | – | – | Kd (14-3-3ζ; method not given, read-out: Kd with 14-3-3ζ): 200000 nM
{FITC}-INEQRM[pT]LPCMYD (also: phosphothreonine at T635, place in chain not given here) | 55 | – | –
KTIVPATLPQLTP (also: phosphothreonine at T524, place in chain not given here) [GR_pT524, 13-mer phosphopeptide used for SPR and crystallography] | – | – | Kd [2]: 22 µM
B1 | – | binds | –
B2 | – | – | Kd [3]: 110 µM
RSYRQS[pS]ANLLCF (not fully specified (N-terminus)) [GR_pS617, 13-mer phosphopeptide used for SPR and crystallography] | – | – | Kd [2]: 27 µM
B3 | – | binds | –
B4 | – | binds | –
{FITC}-KTIVPATLPQLTP (also: phosphothreonine at T524, place in chain not given here) | 38 | – | –
B5 | 72 | binds | –
B6 | 25 | binds | –
